From patent US20100092465A1, “TREATMENT OF GRAFT-VERSUS-HOST DISEASE” (priority 2006, published 2010) come the findings set out here.

Where “and” joins values, the source holds several entries; their conditions need not be identical. Equal values may be shown once.

For assay [1], the target named is IL-27 receptor on mouse spleen cells (mouse) (UniProt O70394). The assay can be described thus: cell-based or functional assay.
In assay [2] the target is IL-27 receptor on total human PBMCs (human) (UniProt Q6UWB1). The assay can be described thus: cell-based or functional assay.
Assay [3] deals with IL-27 receptor (IL-27RA and gp130) on BHK-mIL-27R cells (mouse) (UniProt O70394). The assay can be described thus: saturation binding of 125I-labeled ligand to BHK-mIL-27R cells; average of three studies.
Assay [4] shares this target. The assay can be described thus: saturation binding of 125I-labeled ligand to BHK-mIL-27R cells, 4 hours on ice, gamma counter.
The target of assay [5] is single-chain human IL-27 (amino-terminal peptide tag, EBI3, polypeptide linker, IL-27 p28) (human) (UniProt Q14213). Briefly: cell-based or functional assay.
Assay [6] concerns the target single-chain mouse IL-27 (FLAG tag, mouse EBI3, 17 amino acid linker, mouse IL-27 p28) (mouse) (UniProt O35228). The assay can be described thus: cell-based or functional assay.
For assay [7] the target is unchanged. Briefly: SPR, BIACORE 3000; receptor amine-coupled to the chip, ligand (A1426F) injected; 1:1 model with mass transport.
For assay [8], the target named is single-chain human IL-27 (amino-terminal peptide tag, EBI3, polypeptide linker, IL-27 p28) (human) (UniProt Q14213). The assay can be described thus: SPR, BIACORE 3000; receptor amine-coupled to the chip, ligand (A1534F) injected; 1:1 model with mass transport.
Assay [9] addresses single-chain mouse IL-27 (FLAG tag, mouse EBI3, 17 amino acid linker, mouse IL-27 p28) (mouse) (UniProt O35228). The assay can be described thus: SPR, BIACORE 3000; receptor captured by anti-mouse Fc antibody, ligand (lot A1418F) injected; 1:1 model with mass transport.

Sequence of IL-27 receptor on mouse spleen cells (mouse) (O70394 25-623, chain 1 of 2): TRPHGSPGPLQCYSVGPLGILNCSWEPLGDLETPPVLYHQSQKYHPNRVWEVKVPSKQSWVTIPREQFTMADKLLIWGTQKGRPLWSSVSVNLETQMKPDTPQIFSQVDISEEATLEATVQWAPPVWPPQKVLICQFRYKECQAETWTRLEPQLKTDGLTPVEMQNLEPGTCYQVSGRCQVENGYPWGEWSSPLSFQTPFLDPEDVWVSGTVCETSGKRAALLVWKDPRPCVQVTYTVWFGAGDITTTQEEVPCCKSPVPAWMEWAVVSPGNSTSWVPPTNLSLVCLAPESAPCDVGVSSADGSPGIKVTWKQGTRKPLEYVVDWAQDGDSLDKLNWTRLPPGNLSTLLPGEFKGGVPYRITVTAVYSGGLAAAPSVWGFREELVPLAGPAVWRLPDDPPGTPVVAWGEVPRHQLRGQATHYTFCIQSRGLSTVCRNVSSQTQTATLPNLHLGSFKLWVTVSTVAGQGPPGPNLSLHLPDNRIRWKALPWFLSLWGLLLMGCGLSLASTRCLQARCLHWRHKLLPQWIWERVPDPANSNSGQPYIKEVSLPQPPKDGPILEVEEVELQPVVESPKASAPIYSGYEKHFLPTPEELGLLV
Sequence of IL-27 receptor on mouse spleen cells (mouse) (Q00560 23-917, chain 2 of 2, further chain): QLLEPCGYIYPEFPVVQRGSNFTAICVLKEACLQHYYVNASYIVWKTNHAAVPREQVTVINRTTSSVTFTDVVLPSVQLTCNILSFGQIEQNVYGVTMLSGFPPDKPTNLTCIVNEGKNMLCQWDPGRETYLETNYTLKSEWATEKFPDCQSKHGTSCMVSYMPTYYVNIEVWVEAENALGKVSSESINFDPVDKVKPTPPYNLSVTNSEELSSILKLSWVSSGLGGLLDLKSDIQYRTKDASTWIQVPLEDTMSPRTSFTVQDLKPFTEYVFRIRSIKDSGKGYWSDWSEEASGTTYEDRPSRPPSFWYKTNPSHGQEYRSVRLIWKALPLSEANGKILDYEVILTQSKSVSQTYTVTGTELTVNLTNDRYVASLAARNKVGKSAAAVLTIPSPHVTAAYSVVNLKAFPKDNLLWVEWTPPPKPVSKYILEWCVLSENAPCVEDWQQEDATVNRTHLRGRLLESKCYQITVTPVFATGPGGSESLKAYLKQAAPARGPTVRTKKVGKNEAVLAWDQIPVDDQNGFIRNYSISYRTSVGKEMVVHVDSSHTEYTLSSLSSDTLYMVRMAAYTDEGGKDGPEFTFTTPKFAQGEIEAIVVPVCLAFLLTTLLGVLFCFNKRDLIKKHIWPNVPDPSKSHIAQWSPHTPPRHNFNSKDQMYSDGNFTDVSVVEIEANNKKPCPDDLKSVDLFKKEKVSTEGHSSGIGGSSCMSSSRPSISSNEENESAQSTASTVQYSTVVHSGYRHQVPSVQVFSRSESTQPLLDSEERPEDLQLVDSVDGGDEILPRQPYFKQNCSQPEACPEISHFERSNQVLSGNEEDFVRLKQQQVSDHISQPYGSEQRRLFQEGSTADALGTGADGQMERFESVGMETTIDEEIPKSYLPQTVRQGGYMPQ
Sequence of IL-27 receptor on total human PBMCs (human) (Q6UWB1 33-636, chain 1 of 2): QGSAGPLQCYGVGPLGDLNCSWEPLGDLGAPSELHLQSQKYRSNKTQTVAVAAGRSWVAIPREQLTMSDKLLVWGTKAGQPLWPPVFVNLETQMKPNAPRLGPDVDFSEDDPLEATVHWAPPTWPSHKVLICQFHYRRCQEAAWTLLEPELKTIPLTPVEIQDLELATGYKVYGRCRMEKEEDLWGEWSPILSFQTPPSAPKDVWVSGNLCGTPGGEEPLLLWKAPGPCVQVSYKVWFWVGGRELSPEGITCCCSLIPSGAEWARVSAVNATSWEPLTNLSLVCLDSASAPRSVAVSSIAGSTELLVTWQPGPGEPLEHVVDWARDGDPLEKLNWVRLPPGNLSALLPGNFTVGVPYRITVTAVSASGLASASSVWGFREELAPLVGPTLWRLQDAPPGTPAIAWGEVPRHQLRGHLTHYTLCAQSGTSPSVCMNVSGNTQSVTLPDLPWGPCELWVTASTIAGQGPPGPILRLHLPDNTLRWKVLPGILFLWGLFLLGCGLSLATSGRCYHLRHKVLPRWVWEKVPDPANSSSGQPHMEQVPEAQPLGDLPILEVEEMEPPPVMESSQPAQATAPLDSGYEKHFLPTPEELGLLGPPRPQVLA
Sequence of IL-27 receptor on total human PBMCs (human) (P40189 23-918, chain 2 of 2, further chain): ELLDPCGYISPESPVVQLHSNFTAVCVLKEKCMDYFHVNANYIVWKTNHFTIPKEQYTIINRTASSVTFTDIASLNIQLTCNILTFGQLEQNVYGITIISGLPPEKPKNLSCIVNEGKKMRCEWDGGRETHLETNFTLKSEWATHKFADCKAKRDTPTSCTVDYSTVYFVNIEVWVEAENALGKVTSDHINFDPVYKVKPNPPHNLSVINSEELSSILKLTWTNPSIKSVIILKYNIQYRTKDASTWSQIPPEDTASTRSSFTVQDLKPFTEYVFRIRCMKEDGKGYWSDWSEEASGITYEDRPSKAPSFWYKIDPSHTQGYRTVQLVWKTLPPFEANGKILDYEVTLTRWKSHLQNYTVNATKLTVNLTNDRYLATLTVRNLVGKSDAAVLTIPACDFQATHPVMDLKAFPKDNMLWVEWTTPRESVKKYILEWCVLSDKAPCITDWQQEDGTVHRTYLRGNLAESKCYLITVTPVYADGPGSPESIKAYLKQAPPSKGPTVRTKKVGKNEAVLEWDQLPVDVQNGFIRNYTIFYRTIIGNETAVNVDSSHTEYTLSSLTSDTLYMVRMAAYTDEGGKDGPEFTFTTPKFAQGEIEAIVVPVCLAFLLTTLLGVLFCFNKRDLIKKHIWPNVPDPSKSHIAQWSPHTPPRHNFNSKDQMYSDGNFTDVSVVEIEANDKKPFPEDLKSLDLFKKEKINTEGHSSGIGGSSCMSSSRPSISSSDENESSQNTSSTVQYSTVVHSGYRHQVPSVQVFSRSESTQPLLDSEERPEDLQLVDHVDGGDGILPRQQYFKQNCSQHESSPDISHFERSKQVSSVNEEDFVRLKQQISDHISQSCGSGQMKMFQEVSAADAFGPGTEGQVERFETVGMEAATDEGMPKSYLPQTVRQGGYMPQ

Regarding “single-chain mouse IL-27 (FLAG tag, mouse EBI3, 17 amino acid linker, mouse IL-27 p28) (from UniProt O35228 19-228; Q8K3I6 29-234) (ligand)”, in [1], the EC90 concentration, STAT3 phosphorylation (BIO-PLEX Phospho-Stat3 assay), mouse spleens worked out at 0.2 nM. Further, in assay [2], the EC90 concentration, STAT3 phosphorylation (BIO-PLEX Phospho-Stat3 assay), total human PBMCs stood at 2 nM. Further, the dissociation constant (Kd) is 1.14 nM in assay [3]; 0.9 nM and 1.35 nM and 1.16 nM in assay [4].
With “single-chain human IL-27 (amino-terminal peptide tag, EBI3, polypeptide linker, IL-27 p28) (from UniProt Q14213 21-229; Q8NEV9 29-243) (ligand)”, in assay [1], the EC90 concentration, STAT3 phosphorylation (BIO-PLEX Phospho-Stat3 assay), mouse spleens came to 2 nM. This substance displayed an EC90 concentration, STAT3 phosphorylation (BIO-PLEX Phospho-Stat3 assay), total human PBMCs in [2] of 2 nM.
In assay [5], “human IL27RA-Fc5 fusion protein (Fc fusion)” gave an IC50 (nM), phospho-STAT3 in mouse spleens, ligand at EC90 of 0.32 nM and an IC50 (nM), phospho-STAT3 in total human PBMCs, ligand at EC90 of 0.95 nM. In assay [6], the IC50 (nM), phospho-STAT3 in mouse spleens, ligand at EC90 was determined as 0.14 nM; the IC50 (nM), phospho-STAT3 in total human PBMCs, ligand at EC90 worked out at 2.97 nM; the IL-2 concentration, 48 hr, hIL-27RA 5 ug/ml + IL-27 is 5780 pg/mL; the IL-2 concentration, 48 hr, hIL-27RA 10 ug/ml + IL-27 amounted to 5770 pg/mL. Moreover, in assay [6], the IL-2 concentration, 48 hr, hIL-27RA 10 ug/ml + IL-27 (second row) worked out at 5330 pg/mL; the IL-2 concentration, 72 hr, hIL-27RA 5 ug/ml + IL-27 is 1870 pg/mL; the IL-2 concentration, 72 hr, hIL-27RA 10 ug/ml + IL-27 turned out to be 28600 pg/mL; the IL-2 concentration, 72 hr, hIL-27RA 10 ug/ml + IL-27 (second row) was determined as 17500 pg/mL. Further, in assay [6], the block of the ability of mouse IL-27 to inhibit IL-2 production by naive CD4 T cells was 50%. In assay [7], this substance came in with a koff of 0.0018 s⁻¹ and a kon of 8.1e+06 M⁻¹ s⁻¹. In assay [8], the dissociation rate constant (koff) was 0.0019 s⁻¹ and the kon is 1e+07 M⁻¹ s⁻¹.
Turning to “IL27RAm(mFc1): extracellular domain of mouse IL27RA fused to a wild type BALB/c mouse gamma2a constant region Fc tag (from UniProt O70394 25-510) (Fc fusion)”, in [5], the IC50 (nM), phospho-STAT3 in mouse spleens, ligand at EC90 stood at 9.3 nM and the IC50 (nM), phospho-STAT3 in total human PBMCs, ligand at EC90 came out at 1370 nM. For the same substance, in assay [6], the IC50 (nM), phospho-STAT3 in mouse spleens, ligand at EC90 was 0.18 nM; the IC50 (nM), phospho-STAT3 in total human PBMCs, ligand at EC90 was 4.83 nM; the IL-2 concentration, 48 hr, mIL-27RA 5 ug/ml + IL-27 came to 4020 pg/mL; the IL-2 concentration, 48 hr, mIL-27RA 10 ug/ml + IL-27 was determined as 5220 pg/mL. In assay [6], the IL-2 concentration, 48 hr, mIL-27RA 10 ug/ml + IL-27 (second row) came out at 4920 pg/mL; the IL-2 concentration, 72 hr, mIL-27RA 5 ug/ml + IL-27 was determined as 5740 pg/mL; the IL-2 concentration, 72 hr, mIL-27RA 10 ug/ml + IL-27 was 6700 pg/mL; the IL-2 concentration, 72 hr, mIL-27RA 10 ug/ml + IL-27 (second row) stood at 12200 pg/mL. The same substance gave a block of the ability of mouse IL-27 to inhibit IL-2 production by naive CD4 T cells in assay [6] of 50%. In [9], this substance yielded a koff of 0.0012 s⁻¹ and a kon of 1e+07 M⁻¹ s⁻¹.
